Results taken from patent US20190284289A1 (Eli Lilly, published 2019).

Assays:
human RANKL [1] = biological target: T1, human RANKL (human, UniProt O14788 158-317, limits assumed); test: SPR (BIAcore 2000), antibody captured on Protein A, RANKL as analyte, 25 C; human RANKL
T1 construct: also called RANKL Extracellular Domain
T1 sequence: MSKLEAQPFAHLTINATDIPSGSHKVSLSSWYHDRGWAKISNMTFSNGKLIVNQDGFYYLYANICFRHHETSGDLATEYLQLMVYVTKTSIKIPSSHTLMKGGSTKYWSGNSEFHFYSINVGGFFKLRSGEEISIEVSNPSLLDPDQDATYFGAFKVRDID
Experimental: The BIAcore® 2000 instrument is used to measure binding affinity. All measurements are performed at 25° C. 2 ug/mL of exemplified antibody of Example 1 is dissolved in HBS-EP buffer (150 mM sodium chloride, 3 mM EDTA, 0.005% (w/v) surfactant P-20, and 10 mM HEPES, pH7.4). Protein A is immobilized on flow cells 1 to 4 of a CM4 sensor chip at a level of 500 response units (Rus) using an amine coupling kit.
Binding is evaluated using multiple analytical cycles. Each cycle is performed at a flow rate of 20 uL/minute. About 10 uL of the exemplified antibody of Example 1, at a concentration of 2 ug/mL, is injected, aiming to capture about 100-200Rus; 250 uL of human RANKL (starting at 5 nM and using two-fold serial dilutions for each cycle) is injected, ten minutes is given for dissociation, and 10 uL of 10 mM glycine hydrochloride, pH 1.5 is used for regeneration. Association and dissociation rates for each cycle are evaluated using a “1:1 with mass transfer” binding model in the BIAevaluation software.

human RANKL [2] = biological target: T1, human RANKL; test: cell-based or functional assay
mouse RANKL = biological target: T2, mouse RANKL (mouse, UniProt O35235 158-316, limits assumed); test: SPR (BIAcore 2000), antibody captured on Protein A, RANKL as analyte, 25 C; mouse RANKL
T2 construct: Construct not described; also called murine RANKL
T2 sequence (looked up): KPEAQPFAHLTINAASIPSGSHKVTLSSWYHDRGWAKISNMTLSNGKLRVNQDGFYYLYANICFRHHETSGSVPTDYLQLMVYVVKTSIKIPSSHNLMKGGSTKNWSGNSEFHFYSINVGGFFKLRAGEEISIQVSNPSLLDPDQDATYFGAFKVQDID

rat RANKL = biological target: T3, rat RANKL (rat, UniProt Q9ESE2 141-318, limits assumed); test: SPR (BIAcore 2000), antibody captured on Protein A, RANKL as analyte, 25 C; rat RANKL
T3 construct: Construct not described
T3 sequence (looked up): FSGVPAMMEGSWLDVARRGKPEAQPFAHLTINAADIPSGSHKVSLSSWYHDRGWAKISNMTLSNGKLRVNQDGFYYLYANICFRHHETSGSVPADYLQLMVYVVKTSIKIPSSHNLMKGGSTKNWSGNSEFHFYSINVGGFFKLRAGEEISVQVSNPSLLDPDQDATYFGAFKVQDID

B1: exemplified antibody of Example 1 (antibody, human IgG4 S228P, kappa, F234A L235A, V domains shown)
VH: QVQLVQSGAEVKKPGSSVKVSCKASGYAFTNYYIEWVRQAPGQGLEWMGVINPGWGDTNYNEKFKGRVTITADKSTSTAYMELSSLRSEDTAVYYCARRDTAHGYYALDPWGQGTTVTVSS
VL: DIQMTQSPSSLSASVGDRVTITCKASQNVGTNVAWYQQKPGKAPKLLIYSASYRYSGVPSRFSGSGSGTDFTLTISSLQPEDFATYYCQQYWDYPLTFGGGTKVEIKR
notes: also called the antibody; anti-RANKL antibody
Human RANKL [1]
  Kd: 0.00282 nM
Human RANKL [2]
  IC50, neutralization of human RANKL induced NF-kB driven luciferase luminescence in HEK293 cells expressing human RANK: 0.069 nM
Mouse RANKL
  Kd: 0.00664 nM
Rat RANKL
  Kd: 0.0344 nM
